B1: HDV Ribozyme (parent)
chain: GGCCGGCAUGGUCCCAGCCUCCUCGCUGGCGCCGGCUGGGCAACAUUCCGAGGGGACCGUCCCCUCGGUAAUGGCGAAUGGGACCCA

Variants of: B1
Assay: self-cleavage, relative activity (ratio to wild type); higher = more cleavage; co-transcriptional

First: G6C C85G
Second: G67U G74U
The self-cleavage of the first is lower: 0.375 for the first, 0.453 for the second.

Going from C49U A83C to G34U G53C, the self-cleavage falls from 0.615 to 0.136.

First: C75A C86A
Second: G40U U72G
The self-cleavage of the first is lower: 0.219 for the first, 0.23 for the second.

First: C66A G80C
Second: A71U A77C
The self-cleavage of the first is lower: 0.0845 for the first, 0.287 for the second.

Going from C49A C57A to G29A A77U, the self-cleavage falls from 0.875 to 0.187.

Compared with C24A G68U, G40U C62G is lower in self-cleavage: 0.776 for the first, 0.467 for the second.

First: C7G G82U
Second: U9C C14G
The self-cleavage of the first is lower: 0 for the first, 0.208 for the second.

First: C32A C36U
Second: G29A U46A
The self-cleavage of the first is lower: 0.0733 for the first, 0.156 for the second.

Going from G2C G73U to G73U G76C, the self-cleavage rises from 0.0683 to 0.158.

First: G6A C61G
Second: C24A A42C
The self-cleavage of the first is higher: 0.712 for the first, 0.0639 for the second.

Going from A8U C58G to G2C G52C, the self-cleavage falls from 0.582 to 0.

Compared with G10A C44G, C24U C58U is higher in self-cleavage: 0.415 for the first, 0.772 for the second.

First: G67U C75A
Second: U23A U37C
The self-cleavage of the first is lower: 0.0426 for the first, 1.08 for the second.

Compared with G68C G74U, C13U A42C is lower in self-cleavage: 0.394 for the first, 0.0831 for the second.

First: C3A C26U
Second: C18U C36U
The self-cleavage of the first is higher: 0.853 for the first, 0.198 for the second.

Going from G39U G76U to C61G G80C, the self-cleavage falls from 0.819 to 0.348.

Going from G5U C48U to C30A U60A, the self-cleavage rises from 0.346 to 0.692.

Going from A43G C75A to G17A C44G, the self-cleavage rises from 0.172 to 0.268.

Going from G74U A77U to G53A C85G, the self-cleavage rises from 0.346 to 0.923.

Compared with C21U U46G, A71C A87U is higher in self-cleavage: 0.0978 for the first, 0.844 for the second.

Going from G17C A56C to G28U G68U, the self-cleavage falls from 0.302 to 0.0386.

Going from C36G U37A to C4A C63U, the self-cleavage falls from 0.446 to 0.344.

Compared with C13A C58U, C15U G81U is higher in self-cleavage: 0.415 for the first, 0.554 for the second.

Compared with C15A C33U, U47A C75G is lower in self-cleavage: 0.427 for the first, 0.172 for the second.

First: G5U G54U
Second: C44G U79A
The self-cleavage of the first is higher: 0.612 for the first, 0.388 for the second.

Going from C21G G25A to G2A C84U, the self-cleavage falls from 0.185 to 0.119.

Compared with U20A C24A, C4U C13G is higher in self-cleavage: 0.0415 for the first, 0.0449 for the second.

First: G28U C86U
Second: U9A C85G
The self-cleavage of the first is lower: 0.0594 for the first, 1.13 for the second.

Going from C21U C63G to C49A C64A, the self-cleavage rises from 0.119 to 0.284.

First: G25U C86A
Second: C57A U69A
The self-cleavage of the first is lower: 0.102 for the first, 0.969 for the second.

First: U46C G73A
Second: C36A A83C
The self-cleavage of the first is higher: 0.475 for the first, 0.0791 for the second.

Going from U20C C44A to U20C A42C, the self-cleavage rises from 0 to 0.158.

First: G50C U65G
Second: C22U G80U
The self-cleavage of the first is higher: 0.453 for the first, 0.11 for the second.

Compared with G17A C58G, G55U C62U is higher in self-cleavage: 0.812 for the first, 0.925 for the second.

First: G1U G25A
Second: C3A U9C
The self-cleavage of the first is lower: 0.354 for the first, 0.381 for the second.

First: A8U C24G
Second: G38A A43G
The self-cleavage of the first is lower: 0.0405 for the first, 0.155 for the second.

Compared with C62A G82U, C48G U72C is higher in self-cleavage: 0.295 for the first, 0.449 for the second.

Compared with C18A C32G, C36G C44A is higher in self-cleavage: 0.0875 for the first, 0.128 for the second.

Compared with G35C A87U, U27C U37C is higher in self-cleavage: 0.208 for the first, 0.856 for the second.

Going from C57U A70U to G52A C58U, the self-cleavage falls from 1.05 to 0.888.

First: A8C C24G
Second: G40U A83U
The self-cleavage of the first is lower: 0 for the first, 0.0936 for the second.

Going from G25U C48U to G40C A87G, the self-cleavage rises from 0.102 to 0.215.

Compared with G1U C22U, U69C G73A is higher in self-cleavage: 0.356 for the first, 0.653 for the second.

First: C41A G81C
Second: C41A G73C
The self-cleavage of the first is lower: 0.169 for the first, 0.554 for the second.

Going from C49U C84A to C4G G53U, the self-cleavage falls from 0.786 to 0.424.

Compared with G40U C41A, C18G U37C is lower in self-cleavage: 0.843 for the first, 0.256 for the second.

Going from C32U C86A to G5U G74A, the self-cleavage falls from 0.69 to 0.125.

Compared with G17A G67A, G52U G67U is lower in self-cleavage: 0.501 for the first, 0.205 for the second.

First: C14G G17U
Second: A16G A43G
The self-cleavage of the first is higher: 0.323 for the first, 0.266 for the second.

Going from C24G C30G to G82U C86U, the self-cleavage rises from 0.0875 to 0.554.

First: U69A A70C
Second: A16U C85A
The self-cleavage of the first is lower: 0.745 for the first, 1.1 for the second.

Compared with C13G C30A, G10U C75G is lower in self-cleavage: 0.0978 for the first, 0.0563 for the second.

First: G2C U46G
Second: C26G C48A
The self-cleavage of the first is lower: 0.0959 for the first, 0.973 for the second.

Going from G39U C63A to C64A C85A, the self-cleavage rises from 0.598 to 0.623.

Compared with C15A G25U, G54U U69C is higher in self-cleavage: 0.0791 for the first, 1.16 for the second.

Compared with G35C C44G, G31C G54C is higher in self-cleavage: 0.145 for the first, 0.193 for the second.

Going from C63U A70C to G2C G53U, the self-cleavage falls from 1.07 to 0.0665.

Compared with G34U A56U, G67C A83G is higher in self-cleavage: 0.18 for the first, 0.597 for the second.

Going from G29C U79C to C13G U37C, the self-cleavage rises from 0.138 to 0.237.

First: G40C A43U
Second: C44U U69A
The self-cleavage of the first is lower: 0.0639 for the first, 0.787 for the second.

First: G54A U72G
Second: C21A C85G
The self-cleavage of the first is higher: 0.453 for the first, 0 for the second.

Going from U37A G52C to C32U C75G, the self-cleavage falls from 0.213 to 0.17.

Compared with G31A G39C, G52U A71G is higher in self-cleavage: 0.182 for the first, 0.901 for the second.

Going from C26G C64G to C66A C84G, the self-cleavage falls from 0.787 to 0.692.

Compared with G40A C49A, C7G C75G is lower in self-cleavage: 0.95 for the first, 0.145 for the second.

Going from C36G G81C to G35U G40A, the self-cleavage rises from 0.0656 to 0.304.

First: A16C G17A
Second: A43U C85U
The self-cleavage of the first is lower: 0.519 for the first, 0.658 for the second.

Going from U23G C66G to A70U G74A, the self-cleavage rises from 0.32 to 0.358.

Compared with C32G G39C, C24A C36U is higher in self-cleavage: 0.116 for the first, 0.254 for the second.

Going from G34U U37C to C24G G25C, the self-cleavage falls from 0.148 to 0.145.

First: A78C G81C
Second: C57A C85G
The self-cleavage of the first is lower: 0.0665 for the first, 0.748 for the second.

Compared with C66A U79A, G38U C62A is lower in self-cleavage: 0.696 for the first, 0.317 for the second.

First: C24A G34A
Second: G29U A43G
The self-cleavage of the first is higher: 0.166 for the first, 0.131 for the second.

Compared with C30U G38A, G28U A45U is higher in self-cleavage: 0.0773 for the first, 0.193 for the second.

Going from C48A A87C to G68U C84A, the self-cleavage falls from 1.16 to 0.816.

First: C32G C58G
Second: G1A U72C
The self-cleavage of the first is lower: 0.0773 for the first, 0.107 for the second.

Going from G35C C58G to U20C C58A, the self-cleavage falls from 0.161 to 0.0875.

Compared with C3U U27A, C4A C64G is lower in self-cleavage: 0.701 for the first, 0.386 for the second.

Going from A42C C84G to G5A C22G, the self-cleavage rises from 0 to 0.0554.

First: G31U A71C
Second: C41U G54A
The self-cleavage of the first is lower: 0.0369 for the first, 0.958 for the second.

Going from U20A C22A to G2C G25U, the self-cleavage falls from 0.0898 to 0.0702.

Compared with U27G A56G, U12G U23A is lower in self-cleavage: 1.06 for the first, 0.875 for the second.

First: G25U C33A
Second: C41U C75G
The self-cleavage of the first is lower: 0.156 for the first, 0.208 for the second.

A51G C84A gave a self-cleavage of 0.698.

Reference: the RNAGym collection of RNA variant scans (doi:10.7554/elife.80360)
